Reference: US20080260755A1

Legend:
[1] = target: activated FIX-albumin fusion protein with cleavable linker (1088/797), activated by FXIa (human) (UniProt P00740); assay: cell-based or functional assay
[2] = target: activated FIX-albumin fusion protein with non-cleavable linker (980/797), activated by FXIa (human) (UniProt P00740); assay: cell-based or functional assay
[3] = test system: FIX-albumin fusion protein with cleavable linker, construct no. 1089/797
[4] = test system: FIX-albumin fusion protein with non-cleavable linker (1478/797)
[5] = test system: FIX-albumin fusion protein with cleavable linker, construct no. 1088/797
[6] = target: FIX-albumin fusion protein with cleavable linker, construct no. 1088/797; remark: listed apart in the source
[7] = target: FIX-albumin fusion protein with cleavable linker, construct no. 1089/797; remark: listed apart in the source

Antithrombin III (AT) (from UniProt P01008 33-464)
clotting time (naPTT) after 120 min incubation with AT [1]: 540 s | clotting time (naPTT), control without incubation with AT [1]: 210 s | factor of increase in clotting time (naPTT) after 120 min incubation with AT [1]: 2.57 x | clotting time (naPTT) after 120 min incubation with AT [2]: 411 s | clotting time (naPTT), control without incubation with AT [2]: 196 s

Factor XIa (FXIa)
proteolytic cleavage in vitro, SDS-PAGE [3]: are activated and in parallel the linker is cleaved resulting in release of the albumin moiety | proteolytic cleavage in vitro, SDS-PAGE [4]: The fusion protein with non-cleavable linker did not show a corresponding release of the albumin moiety | proteolytic cleavage in vitro, SDS-PAGE [5]: are activated and in parallel the linker is cleaved resulting in release of the albumin moiety

B1: FVIIa (in the presence of tissue factor) (protein)
chain: ANAFLEELRPGSLERECKEEQCSFEEAREIFKDAERTKLFWISYSDGDQCASSPCQNGGSCKDQLQSYICFCLPAFEGRNCETHKDDQLICVNENGGCEQYCSDHTGTKRSCRCHEGYSLLADGVSCTPTVEYPCGKIPILEKRNASKPQGRIVGGKVCPKGECPWQVLLLVNGAQLCGGTLINTIWVVSAAHCFDKIKNWRNLIAVLGEHDLSEHDGDEQSRRVAQVIIPSTYVPGTTNHDIALLRLHQPVVLTDHVVPLCLPERTFSERTLAFVRFSLVSGWGQLLDRGATALELMVLNVPRLMTQDCLQQSRKVGDSPNITEYMFCAGYSDGSKDSCKGDSGGPHATHYRGTWYLTGIVSWGQGCATVGHFGVYTRVSQYIEWLQKLMRSEPRPGVLLRAPFP
proteolytic cleavage in vitro in the presence of tissue factor (data not shown) [6]: also showed release of the albumin moiety in parallel to release of the FIX activation peptide | proteolytic cleavage in vitro in the presence of tissue factor (data not shown) [7]: also showed release of the albumin moiety in parallel to release of the FIX activation peptide
